The target in this assay is T1, mouse IL-10 receptor (IL-10R) on T cells and B cells of C57BL/6 mouse splenocytes (mouse) (UniProt Q61727).
T1 sequence (looked up) 1: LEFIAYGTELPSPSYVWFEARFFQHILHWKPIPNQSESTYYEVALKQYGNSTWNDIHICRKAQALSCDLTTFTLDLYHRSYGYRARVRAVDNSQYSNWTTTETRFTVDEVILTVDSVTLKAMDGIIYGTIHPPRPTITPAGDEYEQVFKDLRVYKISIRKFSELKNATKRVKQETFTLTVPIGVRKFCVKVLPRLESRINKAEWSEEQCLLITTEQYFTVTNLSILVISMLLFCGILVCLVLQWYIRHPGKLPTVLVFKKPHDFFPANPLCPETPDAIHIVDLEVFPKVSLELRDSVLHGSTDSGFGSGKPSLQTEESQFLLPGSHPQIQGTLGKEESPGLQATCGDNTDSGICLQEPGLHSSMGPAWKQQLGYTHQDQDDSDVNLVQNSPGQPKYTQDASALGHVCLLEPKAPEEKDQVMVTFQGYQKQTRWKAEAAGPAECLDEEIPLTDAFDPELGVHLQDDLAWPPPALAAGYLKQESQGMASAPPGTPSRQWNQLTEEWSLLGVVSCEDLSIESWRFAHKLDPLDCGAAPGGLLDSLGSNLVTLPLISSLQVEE
T1 sequence (looked up) 2: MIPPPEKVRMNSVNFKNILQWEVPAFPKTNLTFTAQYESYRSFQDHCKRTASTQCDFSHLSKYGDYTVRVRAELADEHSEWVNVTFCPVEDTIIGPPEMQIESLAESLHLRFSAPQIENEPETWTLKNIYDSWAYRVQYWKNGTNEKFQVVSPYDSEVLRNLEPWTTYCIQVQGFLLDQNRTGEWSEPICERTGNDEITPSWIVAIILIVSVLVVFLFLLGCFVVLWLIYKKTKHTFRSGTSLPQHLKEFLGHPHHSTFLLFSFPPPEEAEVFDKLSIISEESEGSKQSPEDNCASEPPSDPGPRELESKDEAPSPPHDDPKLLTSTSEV
The assay can be described thus: cell-based or functional assay.

B1: mouse IL-10 (ligand, UniProt P18893 19-178, looked up)
chain: SRGQYSREDNNCTHFPVGQSHMLLELRTAFSQVKTFFQTKDQLDNILLTDSLMQDFKGYLGCQALSEMIQFYLVEVMPQAEKHGPEIKEHLNSLGEKLKTLRMRLRRCHRFLPCENKSKAVEQVKSDFNKLQDQGVYKAMNEFDIFINCIEAYMMIKMKS
As for B1, the STAT3 phosphorylation (pY705), flow cytometry, B cells of C57BL/6 mouse splenocytes (CD19 + B cells), EC50 is 55.3 pM and the STAT3 phosphorylation (pY705), flow cytometry, CD3+ T cells of C57BL/6 mouse splenocytes, EC50 amounted to 91.4 pM.

B2: 5KPEG-mIL-10 (ligand, mouse, UniProt P18893 19-178, looked up)
chain: B1 chain
modifications: conjugated to 5 kD PEG; site of attachment not stated
B2: the STAT3 phosphorylation (pY705), flow cytometry, B cells of C57BL/6 mouse splenocytes (CD19 + B cells), EC50 was determined as 120 pM and the STAT3 phosphorylation (pY705), flow cytometry, CD3+ T cells of C57BL/6 mouse splenocytes, EC50 was determined as 390 pM.
